Assay results reported in patent US20140004128A1.

Biological target: recombinant human IL-18 (human) (UniProt Q14116)
Test: free IL-18 ECL immunoassay: recombinant human IL-18 captured by plate-coated Antibody 12GL, biotinylated detection antibody; rhIL-18BP titrated as competitor of the capture

IC50 (read off the curve): 3 ng/mL
Substance: recombinant IL-18BP (from UniProt O95998 31-194)
